How the values were obtained:
[1] = substrate: O=P(O)(O)O[C@@H]1[C@H](O)[C@H](O)[C@@H](O)[C@H](O)[C@H]1O; assay: malachite green phosphate release assay; assay type: biochemical, Cicer arietinum; details: Mg2+ (optimum 5 mM; typical assay 3 mM MgCl2), 50 mM Tris-Cl pH 8, 37 °C
From the text: (§1) malachite green phosphate release assay on CaIMP

[2] = substrate: O=P(O)(O)OC1O[C@@H](CO)[C@@H](O)[C@@H](O)[C@@H]1O; assay: malachite green phosphate release assay; assay type: biochemical, Cicer arietinum; details: Mg2+ (optimum 5 mM; typical assay 3 mM MgCl2), 50 mM Tris-Cl pH 8, 37 °C
From the text: as §1

B1: CaIMP (Cicer arietinum) (protein)
chain: MVDNDSHSEFLASAVEAAHKAGDVIRKAFYQTKHVQHKGTVDLVTETDKACEELIFNHLKELYPTHKFIGEETTAAFGTTELTDDPTWIVDPLDGTTNFVHGFPFVCVSIGLTIGKVPTVGVVYNPIINELFTAIRGQGAFLNGNPIKVSSQTELVSSLLATEAGTKRDKATLDASTDRINSLLYKVRSLRMSGSCALNLCGVACGRLDLFFETGFGGPWDVAGGAVIVREAGGVVFDPSGADFDITAQRVAASNPLLKDAFVDALRQTE
notes: full-length ORF (813 bp, 270 aa, ~30 kDa) in pET-23b NdeI/XhoI, E. coli BL21(DE3)
**Q.** B1 was tested. Which Km [1] did it give?
**A.** The Km was 25.9 µM.

**Q.** What about the Vmax [1] of the same protein?
**A.** The Vmax was 4.86 µmol/min/mg.

**Q.** And the Km [2]?
**A.** The Km was 16.7 µM.

**Q.** What about the Vmax [2] of the same protein?
**A.** Its Vmax is 5.61 µmol/min/mg.
